Assay results from PMC9531996 (The Journal of Cell Biology, 2022).

B1: WDR91-His6 (natural protein)
chain: MAEAVERTDELVREYLLFRGFTHTLRQLDAEIKADKEKGFRVDKIVDQLQQLMQVYDLAALRDYWSYLERRLFSRLEDIYRPTIHKLKTSLFRFYLVYTIQTNRNDKAQEFFAKQATELQNQAEWKDWFVLPFLPSPDTNPTFATYFSRQWADTFIVSLHNFLSVLFQCMPVPVILNFDAECQRTNQVQEENEVLRQKLFALQAEIHRLKKEEQQPEEEEALVQHKLPPYVSNMDRLGDSELAMVCSQRNASLSQSPRVGFLSSLLPQSKKSPSRLSPAQGPPQPQSSAKKESFGGQGTKGKDPTSGAKDGKSLLSGLATGESGWSQHRQRRLQDHGKERKELFSTTTSQCAEKKPEASGPEAEPCPELHTEPVEPLTRASSAGPEGGGVRPEQPFIVLGQEEYGEHHSSIMHCRVDCSGRRVASLDVDGVIKVWSFNPIMQTKASSISKSPLLSLEWATKRDRLLLLGSGVGTVRLYDTEAKKNLCEININDNMPRILSLACSPNGASFVCSAAAPSLTSQVDFSAPDIGSKGMNQVPGRLLLWDTKTMKQQLQFSLDPEPIAINCTAFNHNGNLLVTGAADGVIRLFDMQQHECAMSWRAHYGEVYSVEFSYDENTVYSIGEDGKFIQWNIHKSGLKVSEYSLPSDATGPFVLSGYSGYKQVQVPRGRLFAFDSEGNYMLTCSATGGVIYKLGGDEKVLESCLSLGGHRAPVVTVDWSTAMDCGTCLTASMDGKIKLTTLLAHKA
B2: GST-SNX27(PX) (domain or fragment)
chain: EKQAVPISVPRYKHVEQNGEKFVVYNVYMAGRQLCSKRYREFAILHQNLKREFANFTFPRLPGKWPFSLSEQQLDARRRGLEEYLEKVCSIRVIGESDIMQEFLSESDENYNGVS
B3: GST-SNX2 (natural protein)
chain: MAAEREPPPLGDGKPTDFEDLEDGEDLFTSTVSTLESSPSSPEPASLPAEDISANSNGPKPTEVVLDDDREDLFAEATEEVSLDSPEREPILSSEPSPAVTPVTPTTLIAPRIESKSMSAPVIFDRSREEIEEEANGDIFDIEIGVSDPEKVGDGMNAYMAYRVTTKTSLSMFSKSEFSVKRRFSDFLGLHSKLASKYLHVGYIVPPAPEKSIVGMTKVKVGKEDSSSTEFVEKRRAALERYLQRTVKHPTLLQDPDLRQFLESSELPRAVNTQALSGAGILRMVNKAADAVNKMTIKMNESDAWFEEKQQQFENLDQQLRKLHVSVEALVCHRKELSANTAAFAKSAAMLGNSEDHTALSRALSQLAEVEEKIDQLHQEQAFADFYMFSELLSDYIRLIAAVKGVFDHRMKCWQKWEDAQITLLKKREAEAKMMVANKPDKIQQAKNEIREWEAKVQQGERDFEQISKTIRKEVGRFEKERVKDFKTVIIKYLESLVQTQQQLIKYWEAFLPEAKAIA

Columns and labels:
Experiment in all cases: pull-down
GST-SNX27 = GST-SNX27 (UniProt Q96L92 1-541)
GST-VPS35 = GST-VPS35 (UniProt Q96QK1 1-796)
His6-WDR91(392-747) = molecular target: T1, His6-WDR91(392-747) (UniProt A4D1P6 392-747)
T1 sequence: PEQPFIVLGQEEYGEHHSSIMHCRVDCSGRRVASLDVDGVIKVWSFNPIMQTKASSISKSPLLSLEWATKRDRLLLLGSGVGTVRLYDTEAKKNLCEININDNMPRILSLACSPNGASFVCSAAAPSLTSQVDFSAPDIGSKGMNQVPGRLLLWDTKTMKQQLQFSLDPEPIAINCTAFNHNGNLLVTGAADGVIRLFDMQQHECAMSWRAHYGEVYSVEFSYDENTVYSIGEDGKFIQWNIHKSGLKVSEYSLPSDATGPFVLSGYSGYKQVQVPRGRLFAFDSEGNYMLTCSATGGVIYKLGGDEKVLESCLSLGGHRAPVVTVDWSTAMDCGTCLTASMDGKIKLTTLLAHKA

WDR91-His6 = molecular target: B1

Binder | binding result (GST-SNX27) | binding result (GST-VPS35) | binding result (His6-WDR91(392-747)) | binding result (WDR91-His6)
B1 | binds | binds |  | 
B2 |  |  | binds | binds
B3 |  |  |  | binds
